Values of other authors as cited in paper PMC6640714.
pKd: −log10 of the molar value.

Target: FcγRIa (Homo sapiens) (UniProt P12314)
Experiment: given as Ka

Sequence of IgG4 (P01861 whole entry): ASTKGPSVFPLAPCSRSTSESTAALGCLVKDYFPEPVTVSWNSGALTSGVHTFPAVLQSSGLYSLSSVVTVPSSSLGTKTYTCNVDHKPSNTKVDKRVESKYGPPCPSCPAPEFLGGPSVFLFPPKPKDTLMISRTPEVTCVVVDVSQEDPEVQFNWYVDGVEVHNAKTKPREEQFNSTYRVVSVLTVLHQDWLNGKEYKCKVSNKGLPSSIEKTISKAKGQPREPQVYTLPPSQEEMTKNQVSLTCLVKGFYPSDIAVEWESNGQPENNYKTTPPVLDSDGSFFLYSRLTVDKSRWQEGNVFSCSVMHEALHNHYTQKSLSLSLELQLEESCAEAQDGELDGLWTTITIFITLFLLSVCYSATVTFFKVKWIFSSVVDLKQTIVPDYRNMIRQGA
Sequence of FcγRIa (Homo sapiens) (P12314 16-374): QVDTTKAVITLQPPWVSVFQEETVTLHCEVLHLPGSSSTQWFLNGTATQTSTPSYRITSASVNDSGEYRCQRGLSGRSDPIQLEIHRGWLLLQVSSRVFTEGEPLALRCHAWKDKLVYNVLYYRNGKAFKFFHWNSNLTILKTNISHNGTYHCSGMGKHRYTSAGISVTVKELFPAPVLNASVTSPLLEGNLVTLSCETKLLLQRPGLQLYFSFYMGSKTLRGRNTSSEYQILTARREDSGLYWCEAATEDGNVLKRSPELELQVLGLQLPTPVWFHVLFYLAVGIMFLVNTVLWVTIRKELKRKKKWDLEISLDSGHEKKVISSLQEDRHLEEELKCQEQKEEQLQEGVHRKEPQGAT

Substance: IgG4 (from UniProt P01861)
- pKd: 7.53
